From patent publication US20210284734A1 (SYMPHOGEN A S, published 2021)
Values belong to the binder of their own block, whether it stands above or below them.

How the values were obtained:
[1] = molecular target: T1, human PD-1 Fc fusion protein (Sino Biological) (human, UniProt Q15116 25-167, limits assumed); experiment: BLI, PD-1-Fc saturated with 10 ug/ml antibody, then PD-L1-Fc
T1 construct: bought; not shown: Fc of the commercial fusion protein

[2] = molecular target: T1, human PD-1 Fc fusion protein (Sino …); experiment: BLI, PD-1-Fc saturated with 10 ug/ml antibody, then PD-L2-Fc
[3] = molecular target: T2, human PD-1 expressed on CHO-S cells (human, UniProt Q15116 25-288); experiment: flow cytometry competition, 10 ug/ml antibody vs R-PE PD-L1-Fc on PD-1 CHO-S cells
T2 construct: also called PD-1-expressing cells
T2 sequence (Q15116 25-288 limits assumed): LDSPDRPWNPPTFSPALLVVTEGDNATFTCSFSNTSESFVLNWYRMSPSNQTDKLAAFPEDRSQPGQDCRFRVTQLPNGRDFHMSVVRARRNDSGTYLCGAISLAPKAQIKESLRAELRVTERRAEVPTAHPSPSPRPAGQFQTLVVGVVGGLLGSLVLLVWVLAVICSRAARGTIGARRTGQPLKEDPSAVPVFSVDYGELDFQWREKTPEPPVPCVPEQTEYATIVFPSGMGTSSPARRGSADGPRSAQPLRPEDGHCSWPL

[4] = molecular target: T3, cyno PD1 (limits assumed); experiment: flow cytometry, PD-1-transfected CHO-S cells; mAb 10 ug/ml, then R-PE PD-L1-Fc as blocked ligand
T3 construct: also called cynomolgus PD-1 expressed on CFSE-stained CHO-S cells
T3 receptor: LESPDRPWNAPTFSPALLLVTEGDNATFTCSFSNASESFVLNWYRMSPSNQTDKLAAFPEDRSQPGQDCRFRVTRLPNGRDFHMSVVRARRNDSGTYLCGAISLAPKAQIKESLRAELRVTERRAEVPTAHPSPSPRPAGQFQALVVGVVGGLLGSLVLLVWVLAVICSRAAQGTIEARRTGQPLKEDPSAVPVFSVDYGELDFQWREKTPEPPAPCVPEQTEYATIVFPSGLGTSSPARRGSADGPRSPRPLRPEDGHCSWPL

[5] = molecular target: T2, human PD-1 expressed on CHO-S cells; experiment: as above
[6] = molecular target: T4, His-tagged human PD-1 ECD (human, UniProt Q15116 25-170); experiment: SPR, IgG captured, monovalent PD-1 ECD analyte
T4 construct: bought from Acro Biosystems; not shown: His tag
T4 sequence (Q15116 25-170): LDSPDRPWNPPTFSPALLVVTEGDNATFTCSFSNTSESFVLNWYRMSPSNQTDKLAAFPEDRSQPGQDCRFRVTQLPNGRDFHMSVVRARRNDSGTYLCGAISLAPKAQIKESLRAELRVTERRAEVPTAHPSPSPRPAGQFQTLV

[7] = molecular target: T5, His-tagged cynomolgus PD-1 ECD (cynomolgus (Macaca fascicularis), UniProt Q15116 25-170 (human entry)); experiment: SPR, IgG captured, monovalent PD-1 ECD analyte
T5 construct: bought from Acro Biosystems; not shown: His tag
T5 chain: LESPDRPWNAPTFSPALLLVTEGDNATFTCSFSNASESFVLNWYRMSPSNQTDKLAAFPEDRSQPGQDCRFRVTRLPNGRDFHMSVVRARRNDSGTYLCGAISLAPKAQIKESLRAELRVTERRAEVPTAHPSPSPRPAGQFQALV
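For % of all cells in Q3 of panel PD-L1 binding (PD-L1-, CFSE+ cyno PD1 cells) in this document: human PD-1 CHO-S cells mixed with CFSE-labelled cyno PD-1 CHO-S cells, antibody binding read with APC anti-human IgG light chain detection.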
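For % of cyno PD1-gated cells in Q1 (mAb+, PD-L1-) in this document: human PD-1 CHO-S cells mixed with CFSE-labelled cyno PD-1 CHO-S cells, antibody binding read with APC anti-human IgG light chain detection.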
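For % of cyno PD1-gated cells in Q2 (mAb+, PD-L1+) in this document: human PD-1 CHO-S cells mixed with CFSE-labelled cyno PD-1 CHO-S cells, antibody binding read with APC anti-human IgG light chain detection.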
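For % of cyno PD1-gated cells in Q3 (mAb-, PD-L1+) in this document: human PD-1 CHO-S cells mixed with CFSE-labelled cyno PD-1 CHO-S cells, antibody binding read with APC anti-human IgG light chain detection.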

T1 sequence (Q15116 25-167 limits assumed): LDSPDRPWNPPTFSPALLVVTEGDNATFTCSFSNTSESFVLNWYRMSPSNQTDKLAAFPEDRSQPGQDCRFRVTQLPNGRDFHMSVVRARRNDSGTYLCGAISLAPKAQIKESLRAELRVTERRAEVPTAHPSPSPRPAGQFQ

B1: 12777.13362 (antibody, human IgG1, lambda, L234A L235A)
heavy: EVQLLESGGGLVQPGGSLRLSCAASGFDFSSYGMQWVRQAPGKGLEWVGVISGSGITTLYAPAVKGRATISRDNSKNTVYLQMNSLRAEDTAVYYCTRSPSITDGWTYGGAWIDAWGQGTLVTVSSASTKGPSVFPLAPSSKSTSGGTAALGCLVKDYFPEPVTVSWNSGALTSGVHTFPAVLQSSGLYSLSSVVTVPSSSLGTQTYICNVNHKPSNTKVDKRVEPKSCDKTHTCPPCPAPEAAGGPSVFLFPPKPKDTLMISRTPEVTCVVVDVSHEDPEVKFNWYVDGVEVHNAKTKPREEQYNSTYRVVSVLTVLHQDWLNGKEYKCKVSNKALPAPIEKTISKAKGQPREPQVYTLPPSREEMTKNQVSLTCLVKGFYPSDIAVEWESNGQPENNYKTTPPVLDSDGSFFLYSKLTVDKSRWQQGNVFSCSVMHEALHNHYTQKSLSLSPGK
light: ELTQDPAVSVALGQTVRITCSGGDGSYGWFQQKPGQAPVTVIYDNDNRPSDIPDRFSGSSSGNTASLTITGAQAEDEADYYCGNADLSGGIFGSGTKVTVLGQPKANPTVTLFPPSSEELQANKATLVCLISDFYPGAVTVAWKADGSPVKAGVETTKPSKQSNNKYAASSYLSLTPEQWKSHRSYSCQVTHEGSTVEKTVAPTECS
notes: same as 12777.15382 but without the N-terminal SY of the light chain
% Blocking [1]: 93%
% Blocking [2]: 90%
% PD-L1 binding inhibition [3]: 69%
% of all cells in Q3 of panel PD-L1 binding (PD-L1-, CFSE+ cyno PD1 cells) [4]: 50%
% of cyno PD1-gated cells in Q1 (mAb+, PD-L1-) [4]: 51.8%
% of cyno PD1-gated cells in Q2 (mAb+, PD-L1+) [4]: 11.4%
% of cyno PD1-gated cells in Q3 (mAb-, PD-L1+) [4]: 0.74%
% of cyno PD1-gated cells in Q4 (mAb-, PD-L1-) [4]: 36.1%
% of all cells in Q1 of panel PD-L1 binding (PD-L1+, CFSE- human PD1 cells) [5]: 2.56%
% of all cells in Q4 of panel PD-L1 binding (PD-L1-, CFSE- human PD1 cells) [5]: 45.3%
% of human PD1-gated cells in Q1 (mAb+, PD-L1-) [5]: 59.6%
% of human PD1-gated cells in Q2 (mAb+, PD-L1+) [5]: 14.3%
% of human PD1-gated cells in Q3 (mAb-, PD-L1+) [5]: 0.28%
% of human PD1-gated cells in Q4 (mAb-, PD-L1-) [5]: 25.9%

B5: 13112.15380 (antibody, human IgG1, lambda, L234A L235A)
heavy: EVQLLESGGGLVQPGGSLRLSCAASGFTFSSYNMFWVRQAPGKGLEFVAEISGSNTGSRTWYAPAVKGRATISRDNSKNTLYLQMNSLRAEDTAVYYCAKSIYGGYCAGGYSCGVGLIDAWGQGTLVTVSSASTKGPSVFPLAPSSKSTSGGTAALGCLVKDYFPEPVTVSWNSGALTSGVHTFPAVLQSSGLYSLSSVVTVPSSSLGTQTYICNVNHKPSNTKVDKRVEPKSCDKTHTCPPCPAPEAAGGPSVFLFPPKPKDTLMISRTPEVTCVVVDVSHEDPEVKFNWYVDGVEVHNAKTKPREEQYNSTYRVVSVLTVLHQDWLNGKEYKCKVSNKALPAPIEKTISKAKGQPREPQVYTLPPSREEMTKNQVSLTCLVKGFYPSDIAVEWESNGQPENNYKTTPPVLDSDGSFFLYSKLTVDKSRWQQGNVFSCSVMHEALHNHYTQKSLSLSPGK
light: SYELTQDPAVSVALGQTVRITCSGGSSDYYGWFQQKPGQAPVTVIYYNNKRPSDIPDRFSGSSSGNTASLTITGAQAEDEADYYCGNADSSVGVFGSGTKVTVLGQPKANPTVTLFPPSSEELQANKATLVCLISDFYPGAVTVAWKADGSPVKAGVETTKPSKQSNNKYAASSYLSLTPEQWKSHRSYSCQVTHEGSTVEKTVAPTECS
notes: humanized, IgG1 LALA, lambda; whole antibody
Kd [6]: 60 pM
koff [6]: 6.9e-05 s⁻¹
kon [6]: 1.2e+06 M⁻¹ s⁻¹
Kd [7]: 452 pM
koff [7]: 0.0011 s⁻¹
kon [7]: 2.5e+06 M⁻¹ s⁻¹

B6: 12777.15382 (antibody, human IgG1, lambda, L234A L235A)
heavy: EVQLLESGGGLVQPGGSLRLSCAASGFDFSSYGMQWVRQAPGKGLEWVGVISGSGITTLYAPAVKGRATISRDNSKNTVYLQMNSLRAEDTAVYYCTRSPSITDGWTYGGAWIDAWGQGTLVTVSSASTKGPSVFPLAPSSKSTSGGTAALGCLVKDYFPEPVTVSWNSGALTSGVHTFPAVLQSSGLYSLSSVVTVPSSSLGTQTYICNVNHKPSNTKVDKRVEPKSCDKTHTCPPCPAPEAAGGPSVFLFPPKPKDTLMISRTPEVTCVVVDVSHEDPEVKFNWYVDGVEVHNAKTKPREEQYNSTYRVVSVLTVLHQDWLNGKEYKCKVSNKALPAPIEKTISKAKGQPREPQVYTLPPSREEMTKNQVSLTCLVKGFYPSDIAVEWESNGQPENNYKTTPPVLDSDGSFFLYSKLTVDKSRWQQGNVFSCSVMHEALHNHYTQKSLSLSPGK
light: SYELTQDPAVSVALGQTVRITCSGGDGSYGWFQQKPGQAPVTVIYDNDNRPSDIPDRFSGSSSGNTASLTITGAQAEDEADYYCGNADLSGGIFGSGTKVTVLGQPKANPTVTLFPPSSEELQANKATLVCLISDFYPGAVTVAWKADGSPVKAGVETTKPSKQSNNKYAASSYLSLTPEQWKSHRSYSCQVTHEGSTVEKTVAPTECS
notes: humanized, IgG1 LALA, lambda
Kd [6]: 337 pM
koff [6]: 8e-05 s⁻¹
kon [6]: 240000 M⁻¹ s⁻¹
Kd [7]: 681 pM
koff [7]: 0.00017 s⁻¹
kon [7]: 250000 M⁻¹ s⁻¹

Continued, values first:

Kd [6]: 558 pM
koff [6]: 0.00023 s⁻¹
kon [6]: 420000 M⁻¹ s⁻¹
Kd [7]: 738 pM
koff [7]: 0.00038 s⁻¹
kon [7]: 510000 M⁻¹ s⁻¹
B2: 12865.15377 (antibody, human IgG1, lambda, L234A L235A, V domains shown)
VH: EVQLLESGGGLVQPGGSLRLSCAASGFDFSDHGMQWVRQAPGKGLEYVGVIDTTGRYTYYAPAVKGRATISRDNSKNTLYLQMNSLRAEDTAVYYCAKTTCVGGYLCNTVGSIDAWGQGTLVTVSS
VL: SYELTQDPAVSVALGQTVRITCSGGGSSSYYGWYQQKPGQAPVTVIYDDTNRPSGIPDRFSGSSSGNTASLTITGAQAEDEADYYCGGYEGSSHAGIFGSGTKVTVLG
notes: humanized, IgG1 LALA, lambda

% Blocking [1]: 88%
% Blocking [2]: 77%
% PD-L1 binding inhibition [3]: 88%
% of all cells in Q3 of panel PD-L1 binding (PD-L1-, CFSE+ cyno PD1 cells) [4]: 55.2%
% of cyno PD1-gated cells in Q1 (mAb+, PD-L1-) [4]: 42.9%
% of cyno PD1-gated cells in Q2 (mAb+, PD-L1+) [4]: 3.36%
% of cyno PD1-gated cells in Q3 (mAb-, PD-L1+) [4]: 1.28%
% of cyno PD1-gated cells in Q4 (mAb-, PD-L1-) [4]: 52.5%
% of all cells in Q1 of panel PD-L1 binding (PD-L1+, CFSE- human PD1 cells) [5]: 0.59%
% of all cells in Q4 of panel PD-L1 binding (PD-L1-, CFSE- human PD1 cells) [5]: 43.8%
% of human PD1-gated cells in Q1 (mAb+, PD-L1-) [5]: 56.1%
% of human PD1-gated cells in Q2 (mAb+, PD-L1+) [5]: 5.3%
% of human PD1-gated cells in Q3 (mAb-, PD-L1+) [5]: 0.45%
% of human PD1-gated cells in Q4 (mAb-, PD-L1-) [5]: 38.2%
B3: 12892.13195 (antibody, human IgG1, lambda, L234A L235A)
heavy: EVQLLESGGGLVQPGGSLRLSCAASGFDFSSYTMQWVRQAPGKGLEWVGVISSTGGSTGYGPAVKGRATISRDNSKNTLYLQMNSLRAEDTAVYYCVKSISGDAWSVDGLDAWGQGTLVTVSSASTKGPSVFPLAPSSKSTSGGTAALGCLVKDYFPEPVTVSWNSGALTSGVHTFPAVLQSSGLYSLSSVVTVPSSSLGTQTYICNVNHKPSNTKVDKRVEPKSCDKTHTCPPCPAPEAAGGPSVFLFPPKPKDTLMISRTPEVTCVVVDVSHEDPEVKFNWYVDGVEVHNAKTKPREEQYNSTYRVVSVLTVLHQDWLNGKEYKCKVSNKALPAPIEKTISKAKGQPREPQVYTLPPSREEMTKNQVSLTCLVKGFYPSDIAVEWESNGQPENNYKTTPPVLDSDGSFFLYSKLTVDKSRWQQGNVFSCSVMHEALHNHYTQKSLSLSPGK
light: ELTQDPAVSVALGQTVRITCSGGGSAYGWYQQKPGQAPVTVIYYNNQRPSGIPDRFSGSSSGNTASLTITGAQAEDEADYYCGSYDSSAVGIFGSGTKVTVLGQPKANPTVTLFPPSSEELQANKATLVCLISDFYPGAVTVAWKADGSPVKAGVETTKPSKQSNNKYAASSYLSLTPEQWKSHRSYSCQVTHEGSTVEKTVAPTECS
notes: same as 12892.15378 but without the N-terminal SY of the light chain

% Blocking [1]: 53%
% Blocking [2]: 27%
% PD-L1 binding inhibition [3]: 5%
B4: 13112.13208 (antibody, human IgG1, lambda, L234A L235A)
heavy: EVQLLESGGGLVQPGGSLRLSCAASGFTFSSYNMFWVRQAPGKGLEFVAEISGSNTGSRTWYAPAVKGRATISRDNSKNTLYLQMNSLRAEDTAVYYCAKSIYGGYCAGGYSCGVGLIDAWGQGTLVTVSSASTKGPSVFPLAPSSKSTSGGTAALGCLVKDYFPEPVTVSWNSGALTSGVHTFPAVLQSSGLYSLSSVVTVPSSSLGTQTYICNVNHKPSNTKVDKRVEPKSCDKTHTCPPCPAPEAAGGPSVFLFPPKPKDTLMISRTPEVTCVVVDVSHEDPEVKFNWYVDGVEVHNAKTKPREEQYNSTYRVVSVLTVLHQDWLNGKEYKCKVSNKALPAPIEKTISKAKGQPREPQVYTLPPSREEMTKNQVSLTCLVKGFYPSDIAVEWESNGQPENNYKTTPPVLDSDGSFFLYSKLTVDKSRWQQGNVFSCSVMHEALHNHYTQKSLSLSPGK
light: ELTQDPAVSVALGQTVRITCSGGSSDYYGWFQQKPGQAPVTVIYYNNKRPSDIPDRFSGSSSGNTASLTITGAQAEDEADYYCGNADSSVGVFGSGTKVTVLGQPKANPTVTLFPPSSEELQANKATLVCLISDFYPGAVTVAWKADGSPVKAGVETTKPSKQSNNKYAASSYLSLTPEQWKSHRSYSCQVTHEGSTVEKTVAPTECS
notes: same as 13112.15380 but without the N-terminal SY of the light chain
